Laboratory results published in publication PMC11480844 (2024).

B1: H2-Kb / Ed23 (parent complex)
chain 1: QQKVQQSPESLTVSEGAMASLNCTFSDRSSDNFRWYRQHSGKGLEVLVSIFSDGEKEEGSFTAHLNRASLHVFLHIREPQPSDSALYLCAVRGFWTNKVVFGTGTRLQVLP
chain 2: AQTIHQWPVAEIKAVGSPLSLGCTIKGKSSPNLYWYWQATGGTLQQLFYSITVGQVESVVQLNLSASRPKDDQFILSTEKLLLSHSGFYLCAWSPRQSSYEQYFGPGTRLTVL
chain 3: not shown
chain 4: IQKTPQIQVYSRHPPENGKPNILNCYVTQFHPPHIEIQMLKNGKKIPKVEMSDMSFSKDWSFYILAHTEFTPTETDTYACRVKHDSMAEPKTVYWDRDM
chain 5: SIINFEKL
B2: H2-Kb / Ed9 (parent complex)
chain 1: AQSVTQPDARVTVSEGASLQLRCKYSYFGTPYLFWYVQYPRQGLQLLLKYYPGDPVVQGVNGFEAEFSKSNSSFHLRKASVHWSDWAVYFCAVSITGGYKVVFGSGTRLLVSP
chain 2: DSGVVQSPRHIIKEKGGRSVLTCIPISGHSNVVWYQQTLGKELKFLIQHYEKVERDKGFLPSRFSVQQFDDYHSEMNMSALELEDSAMYFCASSPRQSDYTFGSGTRLLVI
chain 3: not shown
chain 4: B1 chain 4
chain 5: SIINFEKL

Variants of: B1
Assay: % of reporter cells activated (NFAT-GFP), raw
Note: test concentration or dose not given here.

First: chain 5 I2R
Second: chain 5 I2Q
The ratio to parent of the first is higher: 1.72 for the first, 1.39 for the second.

First: chain 5 I2M
Second: chain 5 I2H
The ratio to parent of the first is higher: 1.46 for the first, 1.36 for the second.

Compared with chain 5 I2L, chain 5 I2S is lower in ratio to parent: 1.49 for the first, 1.12 for the second.

First: chain 5 I2G
Second: chain 5 I2D
The ratio to parent of the first is lower: 0.952 for the first, 1.31 for the second.

First: chain 5 I2A
Second: chain 5 I2Y
The ratio to parent of the first is higher: 1.3 for the first, 0.96 for the second.

Compared with chain 5 I2C, chain 5 I2K is higher in ratio to parent: 1.38 for the first, 1.54 for the second.

Going from chain 5 I2F to chain 5 I2E, the ratio to parent rises from 1.21 to 1.39.

First: chain 5 I2V
Second: chain 5 I2W
The ratio to parent of the first is higher: 1.42 for the first, 1.07 for the second.

First: chain 5 I2P
Second: chain 5 I2N
The ratio to parent of the first is lower: 1.38 for the first, 1.49 for the second.

Going from chain 5 K7M to chain 5 K7F, the ratio to parent falls from 1.12 to 0.0793.

Compared with chain 5 K7A, chain 5 K7H is lower in ratio to parent: 0.598 for the first, 0.333 for the second.

Compared with chain 5 K7L, chain 5 K7P is higher in ratio to parent: 0.477 for the first, 0.798 for the second.

Going from chain 5 K7V to chain 5 K7T, the ratio to parent falls from 0.48 to 0.145.

First: chain 5 K7C
Second: chain 5 K7W
The ratio to parent of the first is lower: 0.919 for the first, 0.975 for the second.

First: chain 5 K7N
Second: chain 5 K7G
The ratio to parent of the first is lower: 0.785 for the first, 1.18 for the second.

Compared with chain 5 K7S, chain 5 K7R is higher in ratio to parent: 1 for the first, 1.42 for the second.

Compared with chain 5 E6L, chain 5 E6D is higher in ratio to parent: 0.0247 for the first, 0.828 for the second.

First: chain 5 E6Q
Second: chain 5 E6M
The ratio to parent of the first is higher: 0.604 for the first, 0.486 for the second.

Going from chain 5 E6H to chain 5 E6F, the ratio to parent falls from 0.551 to 0.147.

Going from chain 5 E6V to chain 5 E6P, the ratio to parent falls from 0.0859 to 0.0439.

Going from chain 5 E6R to chain 5 E6G, the ratio to parent rises from 0.316 to 1.28.

Compared with chain 5 E6S, chain 5 E6T is lower in ratio to parent: 0.0871 for the first, 0.0505 for the second.

First: chain 5 E6K
Second: chain 5 E6Y
The ratio to parent of the first is higher: 1.14 for the first, 0.588 for the second.

Compared with chain 5 E6A, chain 5 E6I is lower in ratio to parent: 0.157 for the first, 0.0187 for the second.

Compared with chain 5 E6N, chain 5 E6W is higher in ratio to parent: 0.0348 for the first, 0.0503 for the second.

Going from chain 5 F5T to chain 5 F5H, the ratio to parent rises from 1.33 to 1.37.

First: chain 5 F5M
Second: chain 5 F5D
The ratio to parent of the first is higher: 1.15 for the first, 0.997 for the second.

Compared with chain 5 F5G, chain 5 F5A is higher in ratio to parent: 0.894 for the first, 1.36 for the second.

First: chain 5 F5R
Second: chain 5 F5C
The ratio to parent of the first is lower: 1.28 for the first, 1.3 for the second.

First: chain 5 F5W
Second: chain 5 F5N
The ratio to parent of the first is lower: 1.08 for the first, 1.28 for the second.

First: chain 5 F5E
Second: chain 5 F5V
The ratio to parent of the first is lower: 0.937 for the first, 1.33 for the second.

Going from chain 5 F5K to chain 5 F5I, the ratio to parent rises from 1.19 to 1.25.

First: chain 5 F5Y
Second: chain 5 F5P
The ratio to parent of the first is higher: 1.32 for the first, 0.864 for the second.

Compared with chain 5 F5S, chain 5 I3D is lower in ratio to parent: 1.19 for the first, 0.768 for the second.

Compared with chain 5 I3Q, chain 5 I3G is lower in ratio to parent: 1.22 for the first, 1.04 for the second.

Compared with chain 5 I3W, chain 5 I3A is higher in ratio to parent: 0.975 for the first, 1.06 for the second.

Going from chain 5 I3L to chain 5 I3Y, the ratio to parent falls from 1.4 to 0.17.

Going from chain 5 I3R to chain 5 I3K, the ratio to parent rises from 0.636 to 0.952.

Compared with chain 5 I3V, chain 5 I3S is lower in ratio to parent: 1.41 for the first, 1.23 for the second.

First: chain 5 S1F
Second: chain 5 S1K
The ratio to parent of the first is lower: 0.207 for the first, 0.558 for the second.

First: chain 5 S1D
Second: chain 5 S1A
The ratio to parent of the first is lower: 0.735 for the first, 1.26 for the second.

Going from chain 5 S1G to chain 5 S1H, the ratio to parent falls from 0.896 to 0.523.

First: chain 5 S1N
Second: chain 5 S1I
The ratio to parent of the first is higher: 0.27 for the first, 0.218 for the second.

Compared with chain 5 S1V, chain 5 S1C is lower in ratio to parent: 1.12 for the first, 0.722 for the second.

Compared with chain 5 S1P, chain 5 S1R is lower in ratio to parent: 1.46 for the first, 1.01 for the second.

Going from chain 5 S1Y to chain 5 S1T, the ratio to parent rises from 0.886 to 1.64.

First: chain 5 N4F
Second: chain 5 N4R
The ratio to parent of the first is lower: 0.586 for the first, 1.22 for the second.

First: chain 5 N4M
Second: chain 5 N4K
The ratio to parent of the first is lower: 0.269 for the first, 0.869 for the second.

Compared with chain 5 N4Y, chain 5 N4S is lower in ratio to parent: 0.813 for the first, 0.42 for the second.

First: chain 5 N4W
Second: chain 5 N4H
The ratio to parent of the first is higher: 1.13 for the first, 1.04 for the second.

Going from chain 5 N4V to chain 5 N4E, the ratio to parent rises from 0.207 to 0.415.

Compared with chain 5 N4T, chain 5 N4D is lower in ratio to parent: 0.342 for the first, 0.0424 for the second.

First: chain 5 N4A
Second: chain 5 N4I
The ratio to parent of the first is lower: 0.18 for the first, 0.277 for the second.

Going from chain 5 L8R to chain 5 L8G, the ratio to parent falls from 1.26 to 1.11.

Going from chain 5 L8V to chain 5 L8Y, the ratio to parent rises from 0.856 to 1.24.

Going from chain 5 L8C to chain 5 L8N, the ratio to parent falls from 1.06 to 1.05.

Compared with chain 5 L8Q, chain 5 L8F is lower in ratio to parent: 1.21 for the first, 1.13 for the second.

First: chain 5 L8W
Second: chain 5 L8P
The ratio to parent of the first is lower: 0.934 for the first, 1.24 for the second.

Compared with chain 5 L8K, chain 5 L8I is lower in ratio to parent: 1.23 for the first, 1.15 for the second.

Variants of: B2
Assay: % of reporter cells activated (NFAT-GFP), raw

First: chain 5 K7T
Second: chain 5 K7E
The ratio to parent of the first is higher: 0.957 for the first, 0.226 for the second.

Compared with chain 5 K7M, chain 5 L8W is higher in ratio to parent: 0.546 for the first, 1 for the second.

Going from chain 5 L8I to chain 5 L8K, the ratio to parent falls from 1.17 to 1.09.

Going from chain 5 L8G to chain 5 L8Y, the ratio to parent rises from 1 to 1.23.

Compared with chain 5 L8N, chain 5 L8S is higher in ratio to parent: 0.883 for the first, 0.899 for the second.

Compared with chain 5 L8F, chain 5 L8T is lower in ratio to parent: 1.14 for the first, 1.09 for the second.

Compared with chain 5 I3A, chain 5 I3Y is lower in ratio to parent: 0.184 for the first, 0.0606 for the second.

Compared with chain 5 F5N, chain 5 F5S is higher in ratio to parent: 1.15 for the first, 1.31 for the second.

Going from chain 5 F5Y to chain 5 F5E, the ratio to parent falls from 1.22 to 1.03.

Compared with chain 5 N4A, chain 5 N4F is higher in ratio to parent: 0.0077 for the first, 0.012 for the second.

Going from chain 5 N4E to chain 5 N4P, the ratio to parent rises from 0.00953 to 0.0766.

First: chain 5 N4V
Second: chain 5 N4S
The ratio to parent of the first is higher: 0.0308 for the first, 0.0154 for the second.

First: chain 5 N4Q
Second: chain 5 I2Q
The ratio to parent of the first is lower: 0.0236 for the first, 0.82 for the second.

First: chain 5 I2F
Second: chain 5 E6Y
The ratio to parent of the first is higher: 1.13 for the first, 0.0945 for the second.

Compared with chain 5 S1V, chain 5 S1P is higher in ratio to parent: 0.0112 for the first, 0.0373 for the second.

Going from chain 5 S1D to chain 5 S1I, the ratio to parent falls from 0.125 to 0.0106.
